B1: LINC00869 dsDNA (dsDNA)
DNA 1: TGTAAAGGGTGAGGCATATGAGGCTGCGGCGGGGCGGAGGGGCGTGAGCTTATACTTATGTTTATCTGGCAGAAGAAATGTTATG
DNA 2: CATAACATTTCTTCTGCCAGATAAACATAAGTATAAGCTCACGCCCCTCCGCCCCGCCGCAGCCTCATATGCCTCACCCTTTACA
B2: CCND1 dsDNA (dsDNA)
DNA 1: CAGTAGCAGCGAGCAGCAGAGTCCGCACGCTCCGGCGAGGGGCAGAAGAGCGCGAGGGAGCGCGGGGCAGCAGAAGCGAGAGCCG
DNA 2: CGGCTCTCGCTTCTGCTGCCCCGCGCTCCCTCGCGCTCTTCTGCCCCTCGCCGGAGCGTGCGGACTCTGCTGCTCGCTGCTACTG
B3: WDR74 dsDNA (dsDNA)
DNA 1: CGTTCCTGGAAGTACTGCAATACCAGGTCGATGCGTGGAGTGGACGGAGCAAGCTCCTATTCCATCTCCTATTTCCAAAAATCCA
DNA 2: TGGATTTTTGGAAATAGGAGATGGAATAGGAGCTTGCTCCGTCCACTCCACGCATCGACCTGGTATTGCAGTACTTCCAGGAACG

Target: GST-PC4 WT (Homo sapiens, UniProt P53999 2-127)
Assay: EMSA

| Binder | binding result |
| --- | --- |
| B1 | no binding |
| B2 | no binding |
| B3 | no binding |

Reference: PMC10864110
